Results: patent publication US20170240637A1 (Memorial Sloan Kettering, published 2017)

T1: 4Ig-B7H3 (human, UniProt Q5ZPR3 27-461, limits assumed)
T1 construct: also called 4Ig-B73H3
T1 sequence (looked up): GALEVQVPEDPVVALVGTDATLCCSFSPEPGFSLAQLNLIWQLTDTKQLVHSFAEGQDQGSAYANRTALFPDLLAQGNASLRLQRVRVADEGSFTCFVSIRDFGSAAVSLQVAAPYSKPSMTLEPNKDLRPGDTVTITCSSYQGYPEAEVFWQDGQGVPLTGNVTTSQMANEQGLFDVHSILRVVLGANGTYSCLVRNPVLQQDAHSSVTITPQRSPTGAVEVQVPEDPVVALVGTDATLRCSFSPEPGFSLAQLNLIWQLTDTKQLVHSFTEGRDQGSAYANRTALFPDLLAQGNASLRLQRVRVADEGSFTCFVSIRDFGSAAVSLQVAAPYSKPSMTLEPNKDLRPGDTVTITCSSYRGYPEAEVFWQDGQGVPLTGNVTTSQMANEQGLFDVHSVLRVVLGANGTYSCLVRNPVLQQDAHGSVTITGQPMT

T2: wild type 2Ig-B7H3-mFc (human, UniProt Q5ZPR3-2 29-248, limits assumed)
T2 construct: Q5ZPR3 canonical entry is the 4Ig isoform; the 2Ig form is its shorter isoform; also called 2Ig-B7H3-Fc; WT 2Ig-B7H3-Fc; not shown: mouse Fc
T2 sequence (looked up): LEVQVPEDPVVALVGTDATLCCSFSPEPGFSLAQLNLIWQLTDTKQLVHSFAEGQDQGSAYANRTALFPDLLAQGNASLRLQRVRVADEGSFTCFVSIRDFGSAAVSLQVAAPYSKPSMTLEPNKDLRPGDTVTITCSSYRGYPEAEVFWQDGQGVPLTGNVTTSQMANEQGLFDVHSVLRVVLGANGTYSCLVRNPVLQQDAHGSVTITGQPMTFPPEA

T3: 2Ig-B7H3 without Fc fusion (human, UniProt Q5ZPR3-2 29-245, limits assumed)
T3 construct: also called 2IgB7H3 (R&D)
T3 sequence (looked up): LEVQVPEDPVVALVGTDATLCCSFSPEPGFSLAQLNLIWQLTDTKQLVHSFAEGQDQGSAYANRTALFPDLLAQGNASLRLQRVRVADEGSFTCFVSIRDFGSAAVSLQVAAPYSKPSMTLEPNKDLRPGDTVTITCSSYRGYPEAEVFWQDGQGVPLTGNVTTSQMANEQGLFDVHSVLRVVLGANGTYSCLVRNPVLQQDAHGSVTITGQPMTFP

T4: 4Ig-B7H3 fused to mouse Fc (B7H3-mFc) (human, UniProt Q5ZPR3 29-466, limits assumed, biotinylated on primary amines (NHS-biotin) in the experiment of paragraph 316)
T4 construct: Expressed in DG44 CHO cells; also called 4Ig-B7H3-Fc; 4Ig-B7H3-mFc; not shown: mouse Fc
T4 sequence (looked up): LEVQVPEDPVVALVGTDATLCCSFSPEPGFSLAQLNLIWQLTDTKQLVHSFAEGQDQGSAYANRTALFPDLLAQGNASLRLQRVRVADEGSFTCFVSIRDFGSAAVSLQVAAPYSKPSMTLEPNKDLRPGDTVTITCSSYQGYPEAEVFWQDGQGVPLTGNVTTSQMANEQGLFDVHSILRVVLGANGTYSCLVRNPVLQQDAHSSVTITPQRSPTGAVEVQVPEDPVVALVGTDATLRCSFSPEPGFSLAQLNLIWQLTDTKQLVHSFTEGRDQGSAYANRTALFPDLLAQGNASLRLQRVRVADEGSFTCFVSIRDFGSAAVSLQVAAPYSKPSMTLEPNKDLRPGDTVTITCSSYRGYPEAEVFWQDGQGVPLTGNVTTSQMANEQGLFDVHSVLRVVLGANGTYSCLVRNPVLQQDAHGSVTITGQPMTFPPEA

B1: hu8H9 5.1 scFv (scFv)
scFv: QVQLVQSGAEVVKPGASVKVSCKTSGYTFTNYDINWVRQRPGQGLEWIGWIFPGDDSTQYNEKFKGRVTMTTDTSTSTVYMELSSLRSEDTAVYFCARQTTGTWFAYWGQGTLVTVSSGGGGSGGGGSGGGGSEIVMTQSPATLSVSPGERVTLSCRASQSISDYLYWYQQKSHQAPRLLIKYASQSISGIPARFSGSGSGSEFTLTISSLQPEDFGVYYCQNGHSFPLTFGQGTKLELKR
notes: not shown: FLAG and His tags
B2: hu8H9 H3L3 IgG1 (antibody, V domains shown)
VH: QVQLVQSGAEVVKPGASVKLSCKASGYTFTNYDINWVRQRPEQGLEWIGWIFPGDGSTQYNEKFKGKATLTTDTSTSTAYMELSSLRSEDTAVYFCARQTTATWFAYWGQGTLVTVSS
VL: EIVMTQSPATLSVSPGERVSLSCRASQSISDYLHWYQQKSHESPRLLIKYASQSISGIPARFSGSGSGSEFTLTINSVEPEDVGVYYCQNGHSFPLTFGQGTKLELKR
B3: hu8H9-H1L1 IgG1 (antibody, V domains shown)
VH: QVQLVQSGAEVKKPGASVKLSCKASGYTFTNYDINWVRQAPGQGLEWIGWIFPGDGSTQYNEKFKGKATLTTDTSTSTAYMELSSLRSEDTAVYFCARQTTATWFAYWGQGTLVTVSS
VL: EIVMTQSPATLSVSPGERVTLSCRASQSISDYLHWYQQKPGQAPRLLIKYASQSISGIPARFSGSGSGTEFTLTISSVQPEDVGVYYCQNGHSFPLTFGQGTKLEIKR
B4: hu8H9 H3L3 scFv (scFv)
scFv: QVQLVQSGAEVVKPGASVKLSCKASGYTFTNYDINWVRQRPEQGLEWIGWIFPGDGSTQYNEKFKGKATLTTDTSTSTAYMELSSLRSEDTAVYFCARQTTATWFAYWGQGTLVTVSSGGGGSGGGGSGGGGSEIVMTQSPATLSVSPGERVSLSCRASQSISDYLHWYQQKSHESPRLLIKYASQSISGIPARFSGSGSGSEFTLTINSVEPEDVGVYYCQNGHSFPLTFGQGTKLELKR
notes: also called parental hu8H9 H3L3; not shown: FLAG and His tags
B5: hu8H9 clone S7.28 scFv (scFv)
scFv: QVQLVQSGAEVVKPGASVKLSCKTSGYTFTNYDINWVRQRPGQGLEWIGWIFPGDGSTQYNEKFKGKATLTTDTSTSTAYMELSSLGSEDTAVYFCTRQTTATWFAYWGQGTLVTVSSGGGGSGGGGSSGGGSEIVMTQSPATLSVSPGERVTLSCRASQSIGDYLYWYQQKSHESPRLLIKYASQSISGIPARFSGSGSGSEFTLTINSVEPEDVGVYYCQNGHSFPLTFGQGTKLELKR
notes: not shown: FLAG and His tags
B6: hu8H9 clone S7.29 scFv (scFv)
scFv: QVQLVQSGAEVVKPGASVKLSCKTSGYTFTNYDINWVRQRPGQGLEWIGWIFPGDGSTQYNEKFKGKATLTTDTSTSTAYLELSSLGSEDTAVYFCARQTTGTWFAYWGQGTLVTVSSGGGGSGGGGSGGGGSEIVMTQSPATLSVSPGERVTLSCRASQSISDYLYWYQQKSHESPRLLIKYASQSISGIPARFSGSGSGSEFTLTINSVEPEDVGVYYCQNGHSFPLTFGQGTKLELKR
notes: not shown: FLAG and His tags
B7: hu8H9 3.1 scFv (scFv)
scFv: QVQLVQSGAEVVKPGASVKLSCKTSGYTFTNYDINWVRQRPGQGLEWIGWIFPGDDSTQYNEKFKGKATLTTDTSTSTAYMELSSLRSEDTAVYFCARQTTGTWFAYWGQGTLVTVSSGGGGSGGGGSGGGGSEIVMTQSPATLSVSPGERVTLSCRASQSISDYLYWYQQKSHESPRLLIKYASQSISGIPARFSGSGSGSEFTLTINSVEPEDVGVYYCQNGHSFPLTFGQGTKLELKR
notes: not shown: FLAG and His tags
B8: hu8H9 clone S7.22 scFv (scFv)
scFv: QVQLVQSGAEVVKPGASVKLSCKTSGYTFTNYDINWVRQRPGQGLEWIGWIFPGDDSTQYNEKFKGKATLTTDTSTSTAYMELSSLRPEDTAVYFCARQTTGTWFAYWGQGTLVTVSSGGGGSGGGGSGGGGSEIVMTQSPATLSVSPGERVTLSCRASQSISDYLYWYQQKSHESPRLLIKYASQSIPGIPARFSGSGSGSEFTLTINSVEPEDVGVYYCQNGHSFPLTFGQGTKLELKR
notes: not shown: FLAG and His tags
B9: hu8H9 clone S7.17 scFv (scFv)
scFv: QVQLVQSGAEVVKPGASVKLSCKTSGYTFTNYDINWVRQRPGQGLEWVGWIFPGDGSTQYNEKFKGKATLTTDTSTSTAYMELSSLRSEDTAVYFCARQTTSTWFAYWGQGTLVTVSSGGGGSGGGGSGGGGSEIVMTQSPATLSVSPGERVTLSCRASQPISDYLYWYQQKSHESPRLLIKYASQSISGIPARFSGSGSGSEFTLTINSVEPEDVGVYYCQNGYSFPLTFGQGTKLELKR
notes: not shown: FLAG and His tags
B10: hu8H9 4.1 scFv (scFv)
scFv: QVQLVQSGAEVVKPGASVKVSCKASGYTFTNYDINWVRQRPEQGLEWIGWIFPGDGSTQYNEKFKGRVTMTTDTSTSTVYMELSSLRSEDTAVYFCARQTTATWFAYWGQGTLVTVSSGGGGSGGGGSGGGGSEIVMTQSPATLSVSPGERVTLSCRASQSISDYLHWYQQKSHQAPRLLIKYASQSISGIPARFSGSGSGSEFTLTISSLQPEDFGVYYCQNGHSFPLTFGQGTKLELKR
notes: not shown: FLAG and His tags
B11: hu8H9 clone S7.2 scFv (scFv)
scFv: QVQLVQSGAEVVKPGASCKLSCKTSGYTFTNYDINWVRQRPGQGLEWIGWIFPGDGSTQYNEKFKGKATLTTDTSTSTAYMELSSLRSEDTAVYFCARQTTATWFAYWGQGTLVTVSSGGGGSGGGGSGGVGSEIVMTQSPATLSVSPGERVTLSCRASQSIGDYLYWYQQKSHESPRLLIKYASQSISGIPARFSGSGSGSEFTLTINSVEPEDVGVYYCQNGHSFPLTFGQGTKLELKR
notes: not shown: FLAG and His tags

Key:
4Ig-B7H3 [1] = biological target: T1, 4Ig-B7H3; test: SPR (Biacore), scFv; antigen not given
Method: (§1) In brief, B7H3 antigen (either 2Ig-B7H3, 4Ig-B7H3, 2Ig-B7H3-mFc, 4Ig-B7H3-mFc), was directly immobilized onto the CM5 sensor chip via […]. Reference surface was set up for nonspecific binding and refractive index changes. For analysis of the kinetics of interactions, varying concentrations of scFvs were injected at flow rate of 30 μl/min using running buffer containing 10 mM HEPES, 150 mM NaCl, 3 mM EDTA, and 0.05% Surfactant P-20 (pH 7.4). The association and dissociation phase data were fitted simultaneously to a 1:1 model by using BIAevaluation 3.2. All the experiments were done at 25° C.

4Ig-B7H3 [2] = biological target: T1, 4Ig-B7H3; test: SPR, IgG on 4Ig-B7-H3 without Fc fusion
Method: (§2) In brief, B7H3 antigen (either 2Ig-B7H3, 4Ig-B7H3, 2Ig-B7H3-mFc, 4Ig-B7H3-mFc), was directly immobilized onto the CM5 sensor chip via […]. Reference surface was set up for nonspecific binding and refractive index changes. […] The association and dissociation phase data were fitted simultaneously to a 1:1 model by using BIAevaluation 3.2. All the experiments were done at 25° C.

wild type 2Ig-B7H3-mFc = biological target: T2, wild type 2Ig-B7H3-mFc; test: SPR, IgG on 2Ig-B7H3-mFc
Method: as §2

[3] = biological target: T3, 2Ig-B7H3 without Fc fusion; test: SPR, IgG on 2Ig-B7-H3 without Fc fusion
Method: as §2

[4] = biological target: T4, 4Ig-B7H3 fused to mouse Fc (B7H3-mFc); test: SPR, IgG on 4Ig-B7H3-Fc
Method: as §2

4Ig-B7H3 [5] = biological target: T1, 4Ig-B7H3; test: SPR, antigen on CM5 chip
Method: as §1

4Ig-B7H3 [6] = biological target: T1, 4Ig-B7H3; test: SPR (Biacore T-100), 4Ig-B7H3 on CM5 chip, scFv injected
Method: as §1

4Ig-B7H3 [7] = biological target: T1, 4Ig-B7H3; test: SPR

Row | Binder | Kd (4Ig-B7H3 [1]) [nM] | koff (4Ig-B7H3 [1]) [s⁻¹] | kon (4Ig-B7H3 [1]) [M⁻¹ s⁻¹] | Kd (4Ig-B7H3 [6]) [nM] | koff (4Ig-B7H3 [6]) [s⁻¹] | kon (4Ig-B7H3 [6]) [M⁻¹ s⁻¹] | other results
1 | B1 | 1.7 | 9.84e-05 | 58800 |  |  |  | 
2 | B2 |  |  |  |  |  |  | Kd (4Ig-B7H3 [2]): 33 nM; koff (4Ig-B7H3 [2]): 0.000677 s⁻¹; kon (4Ig-B7H3 [2]): 20500 M⁻¹ s⁻¹; Kd (wild type 2Ig-B7H3-mFc): 7.5 nM; koff (wild type 2Ig-B7H3-mFc): 0.035 s⁻¹; kon (wild type 2Ig-B7H3-mFc): 4.67e+06 M⁻¹ s⁻¹; Kd [3]: 45 nM; koff [3]: 0.000607 s⁻¹; kon [3]: 13500 M⁻¹ s⁻¹; Kd [4]: 6.6 nM; koff [4]: 0.0452 s⁻¹; kon [4]: 6.83e+06 M⁻¹ s⁻¹
3 | B3 |  |  |  |  |  |  | Kd (4Ig-B7H3 [5]): 112 nM
4 | B4 | 144 | 0.000919 | 6380 | 144 | 0.000919 | 6380 | 
5 | B5 |  |  |  | 277 | 0.00132 | 4750 | 
6 | B6 |  |  |  | 2.7 | 0.000152 | 55900 | fold affinity improvement against parental hu8H9 H3L3 scFv (4Ig-B7H3 [7]): > 50 fold
7 | B7 | 0.92 | 9.52e-05 | 104000 |  |  |  | 
8 | B8 |  |  |  | 1.2 | 9.99e-05 | 86100 | fold affinity improvement against parental hu8H9 H3L3 scFv (4Ig-B7H3 [7]): > 50 fold; fold binding improvement against parental hu8H9 H3L3 scFv (4Ig-B7H3 [7]): > 100 fold
9 | B9 |  |  |  | 2.2 | 0.000113 | 51000 | fold affinity improvement against parental hu8H9 H3L3 scFv (4Ig-B7H3 [7]): > 50 fold
10 | B10 | 45.7 | 0.000557 | 12200 |  |  |  | 
11 | B11 |  |  |  | 5.6 | 0.000143 | 25400 | 
